The results in this text go back to publication PMC7673798 (Science Advances, 2020).

The data set deals with the molecule itself. Description: cryo-EM structure.

B1: OpuA polypeptide with the nucleotide-binding domain (NBD) fused to a tandem CBS domain, E190Q (natural protein, Lactococcus lactis, UniProt Q9KIF7 1-408, looked up)
chain: MPVKIKIEHLTKIFGKRIKTALTMVEKGEPKNEILKKTGATVGVYDTNFEINEGEIFVIMGLSGSGKSTLLRLLNRLIEPTSGKIFIDNQDVATLNKEDLLQVRRKTMSMVFQNFGLFPHRTILENTEYGLEVQNVPKEERRKRAEKALDNANLLDFKDQYPKQLSGGMQQRVGLARALANDPEILLMDQAFSALDPLIRREMQDELLELQAKFQKTIIFVSHDLNEALRIGDRIAIMKDGKIMQIGTGEEILTNPANDYVKTFVEDVDRAKVITAENIMIPALTTNIDVDGPSVALKKMKTEEVSSLMAVDKKRQFRGVVTSEQAIAARKNNQPLKDVMTTDVGTVSKEMLVRDILPIIYDAPTPLAVVDDNGFLKGVLIRGSVLEALADIPDEDEVEEIEKEEENK
For the protein B1, the binding result is reported as “binds”.
